Assay results published in EP4644426A1 (Gan & Lee Pharmaceuticals Co., Ltd., dated 2025).
Where two headings read alike, the source gives them in different places. Each block holds one molecule with its values, some of them ahead of it.

Legend:
[1] = molecular target: human FXIa factor (human) (UniProt P03951); test: cell-based or functional assay
[2] = molecular target: human FXIa factor (human) (UniProt P03951); test: cell-based or functional assay; remark: listed apart in the source
[3] = molecular target: human FXIa factor (human) (UniProt P03951); test: cell-based or functional assay; remark: listed apart in the source
[4] = molecular target: human FXIa factor (human) (UniProt P03951); test: Biacore 8K (SPR), human FXIa in 2-fold dilution series
[5] = molecular target: T1, human FXIa factor (human, UniProt P03951 19-625); test: cell-based or functional assay
[6] = molecular target: T1, human FXIa factor; test: cell-based or functional assay; remark: listed apart in the source
[7] = molecular target: T1, human FXIa factor; test: cell-based or functional assay; remark: listed apart in the source
[8] = molecular target: T1, human FXIa factor; test: cell-based or functional assay; remark: listed apart in the source
[9] = molecular target: T1, human FXIa factor; test: cell-based or functional assay; remark: listed apart in the source
[10] = molecular target: T1, human FXIa factor; test: Biacore 8K (SPR), human FXIa in 2-fold dilution series

Molecule: MAA868 (antibody)
FXIa Kit Activity Assay (nM), IC50 (First Batch) [1]: 11.2 nM | FXIa Kit Activity Assay (nM), IC50 (Second Batch) [1]: 11.7 nM | FXIa Kit Activity Assay (nM), IC50 (Third Batch) [1]: 13.3 nM | FXIa kit Activity Assay (nM), IC50 [1]: 28.9 nM | IC50(nM) from S2366 Assay [1]: 67.3 nM | IC50(nM) from S2366 assay (First Batch) [1]: 118 nM | IC50(nM) from S2366 assay (Fourth Batch) [1]: 64.7 nM | IC50(nM) from S2366 assay (Second Batch) [1]: 83.6 nM | IC50(nM) from S2366 assay (Third Batch) [1]: 106 nM | OD405nm, S2366 activity assay, antibody at 20µg/mL [1]: 0.449 OD405nm | IC50(nM) from S2366 Assay [2]: 44.9 nM | FXIa kit Activity Assay (nM), IC50 [3]: 12.7 nM | Kd [4]: 0.00717 nM | koff [4]: 8.48e-06 s⁻¹ | kon [4]: 1.18e+06 M⁻¹ s⁻¹

B1: 17E3C10-sy (antibody, V domains shown)
VH: QVKLQESGPELRKPGETVYISCKASGYTFTNYGVNWVKQAPGKGLKWMGWINTYTGEPIYADDFKGRFAFSLETSANTAYLQISNLTNEDTATYFCARLYLYGNTYDYYAMDYWGQGTSVTVSS
VL: DIVLTQTPSSMYASLGERVTITCKASQDISTYLSWFQQKPGKSPKTLIYRANRLIDGVPSRFSGSGSGQDFSLTISSLEYEDMGVYYCLQYDDLNTFGGGTKLEIK
OD405nm, S2366 activity assay, antibody at 20µg/mL [5]: 0.414 OD405nm

B2: 29E10C4-sy (antibody, V domains shown)
VH: QVKLEESGAELVRPGTSVKVSCKASGYAFTDYFIEWIKQRPGQGLEWIGVINPGNDVTNYNEKFKGKATLTVDKSSTTAYMQLSSLTSDDSAVYFCTRSAGNYENSMDFWGQGTSVTVSS
VL: DIVLTQSPKFLLVSAGDRVTITCKASQSVSNDVGWYQQKPGQSPKLLIYYTSNRYTGVPDRFTGSGYGTDFTFTISSVQAEDLAVYFCQQDYHFPLTFGAGTKLELK
OD405nm, S2366 activity assay, antibody at 20µg/mL [5]: 0.198 OD405nm | FXIa kit Activity Assay (nM), IC50 [6]: 0.248 nM

B3: 14F3-sy (antibody, V domains shown)
VH: QVQLQQSGAELVRPGTSVTVSCKASGYAFSNYLIEWVNQRPGQGLEWIGVINPGSGYTNYNENFKDKATLTADTSSSTAYMQLSSLTSDDSAVYFCARTYGKYGGAMDFWGQGTSVTVSS
VL: DIVMTQTPKFLLVSAGDRVTITCKASQSVSNDVAWYQQKPGQSPKLLIYYISNRYTGVPDRFTGSGYGTDFTFTINTVQAEDLAVYFCQQDYSSPPTFGGGTKLEIK
OD405nm, S2366 activity assay, antibody at 20µg/mL [5]: 0.211 OD405nm

B4: 24B6-sy (antibody, V domains shown)
VH: EVQLQESGGDLVKPGGSLKLSCAASGFTFSSYGMSWVRQTPDKRLEWVATISSGGSFTYYPDSVKGRFTISRDNAKNTLYLQMSSLKSEDTAMYYCASLTSEGYAMEYWGQGTSVTVSS
VL: DIVLTQSPASLAVSLGQRATISCRASKSVSTSGYSHMHWYQQKLGQPPKLLIYLASNLESGVPARFSGSGSGTDFTLNIHPVEEEDAATYYCQHSRELPYTFGGGTKLEIK
OD405nm, S2366 activity assay, antibody at 20µg/mL [5]: 0.268 OD405nm

B6: 17E10-sy (antibody, V domains shown)
VH: EVQLEESGPGLVKPSQSLSLTCSVTGYSITSGFYWNWIRQFPGNKLEWMGYISFDGRHNYNPSLKNRFSITRDTSKNQFFLKLTSVTAEDTATYYCARDLITTVYYYPMDYWGQGTSVTVSS
VL: DIVMTQSHKFMSTSVGDRVSITCKASQDVGTAVDWYQQKTGQSPKLLIYWASTRHTGVPDRFTGSGSGTDFTLTISNVQSEDLADYFCQQYSNYPLTFGAGTKLELK
OD405nm, S2366 activity assay, antibody at 20µg/mL [5]: 0.189 OD405nm

B10: 11E8-sy (antibody, V domains shown)
VH: EVKLQESGPELVKTGASVKISCKASGYSFTGYFMNWVKQSHGKSLEWIGFINCYNGATSYNQKFKGKATFTVDASSSSAYMQFNSLTSEDSAVYYCARTISTGDSFDYWGQGSTLTVSS
VL: DIVMTQSTSYLSVSLGGRVTITCKASDHINNWLAWYQQKPGDAPSLLISGASRLETGVPSRFSGSGSGKDYTLSITSLQTEDVATYYCQQYWTTPFTFGSGTKLEIK
OD405nm, S2366 activity assay, antibody at 20µg/mL [5]: 0.294 OD405nm

Other lines, results leading:

IC50(nM) from S2366 assay (First Batch) [7]: 122 nM | FXIa Kit Activity Assay (nM), IC50 (First Batch) [8]: 6.7 nM
B5: chimeric antibody 24B6 (antibody, V domains shown)
VH: B4 VH
VL: B4 VL

IC50(nM) from S2366 assay (Second Batch) [7]: 38.5 nM | FXIa Kit Activity Assay (nM), IC50 (Second Batch) [8]: 1.31 nM
B7: chimeric antibody 19C9C10 (antibody, V domains shown)
VH: EVKLEESGAELVKTGASVKLSCTASGFNIKDTYMHWVKQRPEQGLEWIGRIDPANDNTKYDPKFQGRATVTADTSSNTAYLQLISLTSEDTAVYYCAGDYDGYAMDYWGQGTSVTVSS
VL: DIVMTQTTSSLSVSLGGKVTITCKASQDINKYVAWFQHKPGKGPRLLMHYTSTLEPGIPSRFSGSGSGRDYSFTISNLEPEDIATYYCLQYDNLLTFGGGTKLEIK

IC50 (nM) from S2366 Assay [9]: 24.5 nM | FXIa kit Activity Assay (nM), IC50 [6]: 0.545 nM | Kd [10]: 0.00145 nM | koff [10]: 1.96e-05 s⁻¹ | kon [10]: 1.35e+07 M⁻¹ s⁻¹
B8: humanized antibody 29E10C4-1 (antibody, human IgG1, kappa, V domains shown)
VH: QVQLVQSGAEVKKPGSSVKVSCKASGGTFSDYFIEWVRQAPGQGLEWMGVINPGNDVTNYNEKFKGRVTITADKSTSTAYMELSSLRSEDTAVYYCARSAGNYENSMDFWGQGTTVTVSS
VL: EIVLTQSPATLSLSPGERATLSCKASQSVSNDVGWYQQKPGQAPRLLIYYTSNRYTGIPARFSGSGSGTDFTLTISSLEPEDFAVYYCQQDYHFPLTFGGGTKVEIKR
notes: 29E10C4-1 is the only humanized form of that clone

IC50(nM) from S2366 assay (Third Batch) [7]: 93.1 nM | FXIa Kit Activity Assay (nM), IC50 (Third Batch) [8]: 7.8 nM
B9: chimeric antibody 11E8 (antibody, V domains shown)
VH: B10 VH
VL: B10 VL
